B1: WbbB_(GT99)-E158Q (domain or fragment)
chain: LAVFLPPYPFRGLKAPYLWMFYKYLHCATDSILFITGEDYLSVTDDEAQRARWEFDPASMASLGYELPNAQSMACHEYLTLDNAFYETLLSRHHHDPIKSFSAFLTERIPDLETELHALLDSKKGIIDQIDTFISICNCPSLEHVARTLGKEVMHIQIGPLRAPMYRNTAYLDFAGVNGGTEASARYEKCQAEFDIKASLGDLHNYFLEVLPPAEAATHSAAGVVLQVEDDSNLIAYNHDFTNISLLSYVRQRYEKEDILVRAHPGSLFRLRDDVFTIDDSANSLAFINQCNEVFTINSSVGLEAILTGKKTTVLGDCSYAFINELAGASATVNAAAFYLFSYLVPFDLVFNQEYLKFRLGHPEEREIVGKHIEFYSADMPGSLSQAAHSLSSLINEAIS
notes: source: ClearColi BL21 (DE3) E. coli, purified (IMAC, desalting)
B2: WbbB_(GT99)-D232N (domain or fragment)
chain: LAVFLPPYPFRGLKAPYLWMFYKYLHCATDSILFITGEDYLSVTDDEAQRARWEFDPASMASLGYELPNAQSMACHEYLTLDNAFYETLLSRHHHDPIKSFSAFLTERIPDLETELHALLDSKKGIIDQIDTFISICNCPSLEHVARTLGKEVMHIEIGPLRAPMYRNTAYLDFAGVNGGTEASARYEKCQAEFDIKASLGDLHNYFLEVLPPAEAATHSAAGVVLQVEDNSNLIAYNHDFTNISLLSYVRQRYEKEDILVRAHPGSLFRLRDDVFTIDDSANSLAFINQCNEVFTINSSVGLEAILTGKKTTVLGDCSYAFINELAGASATVNAAAFYLFSYLVPFDLVFNQEYLKFRLGHPEEREIVGKHIEFYSADMPGSLSQAAHSLSSLINEAIS
modifications: Kdo modified in ~8% after the CMP-β-Kdo reaction mix; N-terminal methionine removed with variable efficiency
notes: source: ClearColi BL21 (DE3) E. coli, purified (IMAC, desalting), then reacted with the CMP-β-Kdo reaction mix
B3: WbbB_(GT99)-D232C (domain or fragment)
chain: LAVFLPPYPFRGLKAPYLWMFYKYLHCATDSILFITGEDYLSVTDDEAQRARWEFDPASMASLGYELPNAQSMACHEYLTLDNAFYETLLSRHHHDPIKSFSAFLTERIPDLETELHALLDSKKGIIDQIDTFISICNCPSLEHVARTLGKEVMHIEIGPLRAPMYRNTAYLDFAGVNGGTEASARYEKCQAEFDIKASLGDLHNYFLEVLPPAEAATHSAAGVVLQVEDCSNLIAYNHDFTNISLLSYVRQRYEKEDILVRAHPGSLFRLRDDVFTIDDSANSLAFINQCNEVFTINSSVGLEAILTGKKTTVLGDCSYAFINELAGASATVNAAAFYLFSYLVPFDLVFNQEYLKFRLGHPEEREIVGKHIEFYSADMPGSLSQAAHSLSSLINEAIS
notes: as for B2

How the values were obtained:
[1] = target: T1, WbbBGT99 (Klebsiella terrigena, UniProt Q6U8B0); experiment: native MS and pepsin MS/MS after NaBH4 reduction of the enzyme-Kdo adduct; assay type: biochemical; settings: covalent; Kdo transferred to Asp232; donor generated in situ from CTP, Kdo and KdsB; Mg; 5 min then NaBH4, room temperature
T1 construct: gene wbbB; WbbBGT99-His6 in pET28a, expressed in E. coli BL21(DE3) or ClearColi BL21(DE3); dimer in native MS

[2] = target: the molecule itself; experiment: native MS; nanoESI, positive mode, UHMR Orbitrap; aqueous ammonium acetate 200 mM, pH 7, 25 °C; +21 charge state of the dimer; before or after reaction with the CMP-Kdo reaction mix

T1 sequence (Q6U8B0 entry or part of it): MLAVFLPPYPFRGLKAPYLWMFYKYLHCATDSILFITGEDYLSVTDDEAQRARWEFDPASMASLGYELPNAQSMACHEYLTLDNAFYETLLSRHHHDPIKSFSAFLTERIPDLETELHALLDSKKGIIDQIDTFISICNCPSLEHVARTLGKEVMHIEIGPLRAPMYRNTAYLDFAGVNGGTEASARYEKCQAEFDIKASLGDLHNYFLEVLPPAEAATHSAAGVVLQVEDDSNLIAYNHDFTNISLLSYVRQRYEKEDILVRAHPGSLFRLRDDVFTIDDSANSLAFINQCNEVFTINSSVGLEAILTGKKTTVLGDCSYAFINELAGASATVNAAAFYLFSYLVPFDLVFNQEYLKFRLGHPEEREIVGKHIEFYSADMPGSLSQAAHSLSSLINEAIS

Molecule	native MS and pepsin MS/MS after NaBH4 reduction of the enzyme-Kdo adduct [1]	stoichiometry N [2]
Nc1ccn([C@@H]2O[C@H](COP(=O)(O)O[C@@]3(C(=O)O)C[C@@H](O)[C@@H](O)[C@@H]([C@H](O)CO)O3)[C@@H](O)[C@H]2O)c(=O)n1 [CMP-β-Kdo]	Asp232 is the sole residue that has been converted to homoserine	–
B1	–	2
B2	–	2
B3	–	2

Source: publication PMC9587256, “The retaining β-Kdo glycosyltransferase WbbB uses a double-displacement mechanism with an intermediate adduct rearrangement step” (Nature Communications, 2022)
